39 molecules from patent publication US20220259593A1, “CONTROL OF MAMMALIAN GENE DOSAGE USING CRISPR” (The Regents of the University of California, priority 2019, published 2022) can be followed below.

Residue numbers refer to the chain shown, from its start.

The chains are these.
B1: cr086 (nucleic acid)
guide: GTTTACTAGCTAAGCTGGAAACAGCATAGCAAGTTTAAATAAGGCTAGTCCGTTATCAACTTGAAAAAGTGGCACCGAGTCGGTGCT
modifications: listed as DNA, chemistry not fully specified
B2: cr837 (nucleic acid)
guide: B1 guide with C6A, T7G, G77C
modifications: listed as DNA, chemistry not fully specified
B3: cr300 (nucleic acid)
guide: B1 guide with C6A, T7G, C45A, G48T, G72A, C73T, G85A, C86T
modifications: listed as DNA, chemistry not fully specified
B4: cr531 (nucleic acid)
guide: B1 guide with C6A, T7G, A19T
modifications: listed as DNA, chemistry not fully specified
B5: cr846 (nucleic acid)
guide: B1 guide with C6A, T7G, A28G, G63A, A78G
modifications: listed as DNA, chemistry not fully specified
B6: cr631 (nucleic acid)
guide: B1 guide with C6A, T7G, C45A, G48T, T61A, A68T, C75A, G83T
modifications: listed as DNA, chemistry not fully specified
B7: cr491 (nucleic acid)
guide: B1 guide with C6A, T7G, C45A, G48T, C60G, G69C
modifications: listed as DNA, chemistry not fully specified
B8: cr937 (nucleic acid)
guide: B1 guide with C6A, T7G, C45G, G48C, T62C, A67G, C76A, G82T
modifications: listed as DNA, chemistry not fully specified
B9: cr726 (nucleic acid)
guide: B1 guide with C6A, T7G, A32T, G52A, A55C
modifications: listed as DNA, chemistry not fully specified
B10: cr227 (nucleic acid)
guide: B1 guide with C6A, T7G, T53C, T56A, A58C
modifications: listed as DNA, chemistry not fully specified
B11: cr533 (nucleic acid)
guide: B1 guide with C6A, T7G, A59G, T70C, A74G, C75G, G83C, T84C
modifications: listed as DNA, chemistry not fully specified
B12: cr651 (nucleic acid)
guide: B1 guide with C6A, T7G, A55T, T56G, G71A
modifications: listed as DNA, chemistry not fully specified
B13: cr803 (nucleic acid)
guide: B1 guide with C6A, T7G, C45A, G48T, A65G
modifications: listed as DNA, chemistry not fully specified
B14: cr479 (nucleic acid)
guide: B1 guide with C6A, T7G, C60G, G69C, C73G, G77C, C81G, G85C
modifications: listed as DNA, chemistry not fully specified
B15: cr842 (nucleic acid)
guide: B1 guide with C6A, T7G, T34C, A59G, T70C
modifications: listed as DNA, chemistry not fully specified
B16: cr458 (nucleic acid)
guide: B1 guide with C6A, T7G, A65G, G71C
modifications: listed as DNA, chemistry not fully specified
B17: cr598 (nucleic acid)
guide: B1 guide with C6A, T7G, T34C, T62G, A67C
modifications: listed as DNA, chemistry not fully specified
B18: cr989 (nucleic acid)
guide: B1 guide with C6A, T7G, G69A
modifications: listed as DNA, chemistry not fully specified
B19: cr338 (nucleic acid)
guide: B1 guide with C6A, T7G, T35C, T46G
modifications: listed as DNA, chemistry not fully specified
B20: cr456 (nucleic acid)
guide: B1 guide with C6A, T7G, G33A, T46A
modifications: listed as DNA, chemistry not fully specified
B21: cr282 (nucleic acid)
guide: B1 guide with C6A, T7G, G72C, C73A, A74C, T84G, G85T, C86G
modifications: listed as DNA, chemistry not fully specified
B22: cr134 (nucleic acid)
guide: B1 guide with C6A, T7G, C57T, A66C
modifications: listed as DNA, chemistry not fully specified
B23: cr500 (nucleic acid)
guide: B1 guide with C6A, T7G, T80G
modifications: listed as DNA, chemistry not fully specified
B24: cr212 (nucleic acid)
guide: B1 guide with C6A, T7G, G33A, A66G
modifications: listed as DNA, chemistry not fully specified
B25: cr602 (nucleic acid)
guide: B1 guide with C6A, T7G, A74G, T84C
modifications: listed as DNA, chemistry not fully specified
B26: cr766 (nucleic acid)
guide: B1 guide with C6A, T7G, T61A, A68T
modifications: listed as DNA, chemistry not fully specified
B27: cr223 (nucleic acid)
guide: B1 guide with C6A, T7G, C45G, G48C
modifications: listed as DNA, chemistry not fully specified
B28: cr827 (nucleic acid)
guide: B1 guide with C6A, T7G, C45A, G48T, A74T, C75A, G83T, T84A
modifications: listed as DNA, chemistry not fully specified
B29: cr639 (nucleic acid)
guide: B1 guide with C6A, T7G, C45A, G48T
modifications: listed as DNA, chemistry not fully specified
B30: cr254 (nucleic acid)
guide: B1 guide with C6A, T7G, C76A, G77C, C81G, G82T
modifications: listed as DNA, chemistry not fully specified
B31: cr927 (nucleic acid)
guide: B1 guide with C6A, T7G, A74G, G77C, C81G, T84C
modifications: listed as DNA, chemistry not fully specified
B32: cr330 (nucleic acid)
guide: B1 guide with C6A, T7G, C45A, G48T, G72C, C86G
modifications: listed as DNA, chemistry not fully specified
B33: cr976 (nucleic acid)
guide: B1 guide with C6A, T7G, C45G, G48C, A65G
modifications: listed as DNA, chemistry not fully specified
B34: cr957 (nucleic acid)
guide: B1 guide with C6A, T7G, C45G, G48C, G72C, C86G
modifications: listed as DNA, chemistry not fully specified
B35: cr440 (nucleic acid)
guide: B1 guide with C6A, T7G, G69C
modifications: listed as DNA, chemistry not fully specified
B36: cr451 (nucleic acid)
guide: B1 guide with C6A, T7G, C45A, G48T, A74T, T84A
modifications: listed as DNA, chemistry not fully specified
B37: cr915 (nucleic acid)
guide: B1 guide with C6A, T7G, G77C, C81G
modifications: listed as DNA, chemistry not fully specified
B38: cr481 (nucleic acid)
guide: B1 guide with C6A, T7G, C45G, G48C, G72A, C86T
modifications: listed as DNA, chemistry not fully specified
B39: cr008 (nucleic acid)
guide: B1 guide with T3C, C6A, T7G
modifications: listed as DNA, chemistry not fully specified

This series relates to K562 CRISPRi cells. Kind of series: Constant region variant library pooled growth screen, K562. Particulars: sgRNA constant region variants; activity relative to the original, un-modified constant region cr995. In kind it is cell-based, human. Put shortly: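 Pooled library transduced into K562 CRISPRi cells in duplicate, puromycin-selected, grown at >2000× coverage and sampled after 4 to 8 days. Phenotypes per targeting sequence:constant region pair were normalized to the unmodified-scaffold pairing to give relative activity.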
B1 returned a Mean relative activity of 0.614. In the case of B2 it was 0.5543. For B3 the value was 0.592; for B4, 1.048.

For B5, the Mean relative activity turned out to be 0.5528.

Regarding B6, the Mean relative activity is on record as 0.6014. Turning to B7, the Mean relative activity was found to be 0.5775.

B8 gave a Mean relative activity of 0.6137. For B9 the value was 0.5903; for B10, 0.6062; for B11, 0.5558.

The molecule B12 yielded a Mean relative activity of 0.5637. The molecule B13 had a Mean relative activity of 0.578.

For the molecule B14, the Mean relative activity is 0.5994. In the case of B15 it was 0.5544; in that of B16, 0.5958; in that of B17, 0.5934. For B18 the value was 0.5623; for B19, 0.5831; for B20, 0.5821. For B21 the value was 1.049. In the case of B22, the Mean relative activity came out at 0.5692. The molecule B23 returned a Mean relative activity of 0.5743. In the case of B24 it was 0.6035; in that of B25, 1.049. Take B26: the Mean relative activity is reported as 1.051. In the case of B27 it was 0.5667; in that of B28, 0.5792; in that of B29, 0.6057. In the case of B30 it was 0.5503; in that of B31, 0.5921.

Consider B32, for which the Mean relative activity was found to be 0.5762. For B33 the value was 0.5594; for B34, 0.5576.

In turn, B35 returned a Mean relative activity of 0.5863.

In turn, B36 yielded a Mean relative activity of 0.6053. On to B37, for which the Mean relative activity was 0.5965. As to B38, the Mean relative activity worked out at 0.5936. For B39 the value was 0.5955.
